Tests used:
[1] = target: the molecule itself; experiment: 90° angle light scattering; 5 µM FtsZ in polymerization buffer (50 mM MES, 2.5 mM MgCl2, 1 mM EGTA, 50 mM KCl, pH 6.5), assembly started with 1 mM GTP, 30°C
[2] = target: FtsZ (tubulin-like cell division protein) of E. coli, untagged (E. coli) (UniProt P0A9A6)
[3] = target: FtsZ (tubulin-like cell division protein) of E. coli, untagged (E. coli) (UniProt P0A9A6); remark: listed apart in the source

reduction of FtsZ's GTP hydrolysis (regenerative coupled GTPase assay), 5 µM FtsZ, ratios FtsZ:OpgH^N of 1:1 (25%), 1:1.5 (55%) and 1:2 (84%); FtsZ alone 5.1 GTP/minute/FtsZ [2] [%] | apparent critical concentration (CcApp) of FtsZ for GTP hydrolysis at 0 µM (0.69 µM), 2.5 µM (1.31 µM), 5 µM (1.85 µM) and 10 µM OpgH^N (4.08 µM) [3] [µM] | Binder | binding result [1]
– | – | FtsZ (tubulin-like cell division protein) of E. coli, untagged (natural protein, UniProt P0A9A6 1-383, looked up, FtsZ, cell division protein of E. coli, in its native (untagged) form; also called E. coli FtsZ; source: untagged) MFEPMELTNDAVIKVIGVGGGGGNAVEHMVRERIEGVEFFAVNTDAQALRKTAVGQTIQIGSGITKGLGAGANPEVGRNAADEDRDALRAALEGADMVFIAAGMGGGTGTGAAPVVAEVAKDLGILTVAVVTKPFNFEGKKRMAFAEQGITELSKHVDSLITIPNDKLLKVLGRGISLLDAFGAANDVLKGAVQGIAELITRPGLMNVDFADVRTVMSEMGYAMMGSGVASGEDRAEEAAEMAISSPLLEDIDLSGARGVLVNITAGFDLRLDEFETVGNTIRAFASDNATVVIGTSLDPDMNDELRVTVVATGIGMDKRPEITLVTNKQVQQPVMDRYQQHGMAPLTQEQKPVAKVVNDNAPQTAKEPDYLDIPAFLRKQAD | binds
84 | 4.08 | OpgH^N (N-terminal cytoplasmic domain of the glucosyltransferase OpgH, residues 1-138) (domain or fragment) MNKTTEYIDAMPIAASEKAALPKTDIRAVHQALDAEHRTWAREDDSPQGSVKARLEQAWPDSLADGQLIKDDEGRDQLKAMPEAKRSSMFPDPWRTNPVGRFWDRLRGRDVTPRYLARLTKEEQESEQKWRTVGTIRR | –

— publication PMC3723540, “A Moonlighting Enzyme Links Escherichia coli Cell Size with Central Metabolism” (PLoS Genetics, 2013)
